Measured values as given in publication PMC7954794, “Protein context shapes the specificity of SH3 domain-mediated interactions in vivo” (Nature Communications, 2021).

System: growth of yeast strains under 51 stress conditions
Experiment: Growth assays in 51 stress conditions (Fig. 1E-F, S2D, S5B)
Format: cell-based, Saccharomyces cerevisiae
Set-up: key to Growth (Fig. S2D) / growth of ABP1 SH3-swapped strains in stress condition: log2 colony size, average of median per strain (growth score)
Details: for relative_to_wt, D_minus_WT / relative_to_wt, KO_minus_WT: Bathophenanthroline 0.1uM, log2 colony size, 74 h at 37 °C, n = 12; for relative_to_wt, D_minus_WT: D = SH3 deletion (all SH3s deleted for multi-SH3 proteins); for relative_to_wt, KO_minus_WT: KO = gene deletion; for Growth (Fig. S2D): ABP1 SH3-swapped strains
Experimental: All WT, SH3-deleted, KO (except for CDC25 which is the only essential SH3-containing gene in yeast), ABP1 SH3-swapped, and SLA1 SH3-shuffled strains were grown on omnitrays in 1536 formats and robotically manipulated with a pin tool (the DHFR F[1,2] bait strains were used except for the KO strains). Each strain was randomly positioned in 6 replicates per plate and two plates per condition were performed, for 12 replicates per strain in total. A border of two rows and two columns of WT strains (BY4741) around the plate was used to remove border effects. Strains were grown on YPD media for two days at 30 °C. They were then replicated on 51 different media that are described in the Supplementary Table 3 and were incubated at 37 °C in a spImager custom platform with images acquired every two hours for four days. The colony sizes from plate pictures were also measured with the R package “Gitter” and the output was manually inspected. Positions with an abnormality in colony circularity were removed. The colony sizes after 74 h of incubation at 37 °C were log2 transformed and used for the analyses. First, the differences between the two plate replicates were corrected to remove plate effects. The median colony size was calculated for each strain per plate. Strains with a difference in their median colony size of more than two between the two plate replicates were removed. Finally, the average of the median colony size was calculated for each strain per condition (growth score).

B1: BBC1: yeast SH3-containing protein; SH3-deleted or knockout strain (protein, UniProt P47068 1-1157, looked up)
Myosin tail …: MSEPEVPFKVVAQFPYKSDYEDDLNFEKDQEIIVTSVEDAEWYFGEYQDSNGDVIEGIFPKSFVAVQGSEVGKEAESSPNTGSTEQRTIQPEVEQKDLPEPISPETKKETLSGPVPVPAATVPVPAATVPVPAATAVSAQVQHDSSSGNGERKVPMDSPKLKARLSMFNQDITEQVPLPKSTHLDLENIPVKKTIVADAPKYYVPPGIPTNDTSNLERKKSLKENEKKIVPEPINRAQVESGRIETENDQLKKDLPQMSLKERIALLQEQQRLQAAREEELLRKKAKLEQEHERSAVNKNEPYTETEEAEENEKTEPKPEFTPETEHNEEPQMELLAHKEITKTSREADEGTNDIEKEQFLDEYTKENQKVEESQADEARGENVAEESEIGYGHEDREGDNDEEKEEEDSEENRRAALRERMAKLSGASRFGAPVGFNPFGMASGVGNKPSEEPKKKQHKEKEEEEPEQLQELPRAIPVMPFVDPSSNPFFRKSNLSEKNQPTETKTLDPHATTEHEQKQEHGTHAYHNLAAVDNAHPEYSDHDSDEDTDDHEFEDANDGLRKHSMVEQAFQIGNNESENVNSGEKIYPQEPPISHRTAEVSHDIENSSQNTTGNVLPVSSPQTRVARNGSINSLTKSISGENRRKSINEYHDTVSTNSSALTETAQDISMAAPAAPVLSKVSHPEDKVPPHPVPSAPSAPPVPSAPSVPSAPPVPPAPPALSAPSVPPVPPVPPVSSAPPALSAPSIPPVPPTPPAPPAPPAPLALPKHNEVEEHVKSSAPLPPVSEEYHPMPNTAPPLPRAPPVPPATFEFDSEPTATHSHTAPSPPPHQNVTASTPSMMSTQQRVPTSVLSGAEKESRTLPPHVPSLTNRPVDSFHESDTTPKVASIRRSTTHDVGEISNNVKIEFNAQERWWINKSAPPAISNLKLNFLMEIDDHFISKRLHQKWVVRDFYFLFENYSQLRFSLTFNSTSPEKTVTTLQERFPSPVETQSARILDEYAQRFNAKVVEKSHSLINSHIGAKNFVSQIVSEFKDEVIQPIGARTFGATILSYKPEEGIEQLMKSLQKIKPGDILVIRKAKFEAHKKIGKNEIINVGMDSAAPYSSVVTDYDFTKNKFRVIENHEGKIIQNSYKLSHMKSGKLKVFRIVARGYVGW
relative_to_wt, D_minus_WT: -0.7326
relative_to_wt, KO_minus_WT: -0.7845
Growth (Fig. S2D) (Bathophenanthroline.0.1uM): 10.8555
Growth (Fig. S2D) (Bathophenanthroline.10uM): 10.7329
Growth (Fig. S2D) (Bathophenanthroline.1uM): 10.8406
Growth (Fig. S2D) (CaCl2.100mM): 10.8635
Growth (Fig. S2D) (CaCl2.250mM): 10.7473
Growth (Fig. S2D) (CaCl2.500mM): 10.2321
Growth (Fig. S2D) (Caffein.10mM): 10.0361
Growth (Fig. S2D) (Caffein.2mM): 11.0328
Growth (Fig. S2D) (CdCl2.100uM): 9.446
Growth (Fig. S2D) (CdCl2.10uM): 10.9111
Growth (Fig. S2D) (CdCl2.50uM): 9.87
Growth (Fig. S2D) (CuSO4.1mM): 10.4195
Growth (Fig. S2D) (CuSO4.5mM): 7.7318
Growth (Fig. S2D) (Cycloheximide.0.05.uM): 11.1604
Growth (Fig. S2D) (Cycloheximide.0.2.uM): 10.7217
Growth (Fig. S2D) (Cycloheximide.0.5.uM): 10.1165
Growth (Fig. S2D) (DMSO.2.): 11.0262
Growth (Fig. S2D) (DMSO.6.): 9.821
Growth (Fig. S2D) (DMSO.8.): 9.042
Growth (Fig. S2D) (Ethanol.2.): 10.863
Growth (Fig. S2D) (Ethanol.6.): 10.43
Growth (Fig. S2D) (Ethanol.8.): 10.2184
Growth (Fig. S2D) (Galactose.2.): 10.7901
Growth (Fig. S2D) (Glycerol.2.): 9.731
Growth (Fig. S2D) (Hydroxyurea.25mM): 10.7777
Growth (Fig. S2D) (Hygromycin.190uM): 11.0445
Growth (Fig. S2D) (Hygromycin.19uM): 11.0769
Growth (Fig. S2D) (Hygromycin.95uM): 11.0543
Growth (Fig. S2D) (MMS.0.004.): 10.9787
Growth (Fig. S2D) (MMS.0.02.): 10.743
Growth (Fig. S2D) (MMS.0.04.): 9.98
Growth (Fig. S2D) (Menadione.100uM): 10.5737
Growth (Fig. S2D) (Menadione.200uM): 10.4364
Growth (Fig. S2D) (Menadione.50uM): 10.8865
Growth (Fig. S2D) (NaCl.0.25M): 10.7759
Growth (Fig. S2D) (NaCl.1M): 9.566
Growth (Fig. S2D) (Nitroquinoline.10uM): 10.676
Growth (Fig. S2D) (Nitroquinoline.50uM): 10.6106
Growth (Fig. S2D) (Nystatin.0.01uM): 10.9601
Growth (Fig. S2D) (Nystatin.0.1uM): 11.003
Growth (Fig. S2D) (Raffinose.2.): 11.0344
Growth (Fig. S2D) (Rapamycin.10nM): 9.767
Growth (Fig. S2D) (Rapamycin.50nM): 9.406
Growth (Fig. S2D) (SC.pH3): 10.4328
Growth (Fig. S2D) (SC.pH6): 11.0565
Growth (Fig. S2D) (SDS.0.01.): 11.0008
Growth (Fig. S2D) (SDS.0.02.): 11.0385
Growth (Fig. S2D) (SDS.0.05.): 10.9076
Growth (Fig. S2D) (Sorbitol.10mM): 11.0218
Growth (Fig. S2D) (Sorbitol.1mM): 10.99
Growth (Fig. S2D) (Sorbitol.5mM): 10.8909

B2: ABP1: yeast SH3-containing protein; SH3-deleted (D) or gene-deleted (KO) strain (protein, UniProt P15891 2-592, looked up)
Actin-binding protein: ALEPIDYTTHSREIDAEYLKIVRGSDPDTTWLIISPNAKKEYEPESTGSSFHDFLQLFDETKVQYGLARVSPPGSDVEKIIIIGWCPDSAPLKTRASFAANFAAVANNLFKGYHVQVTARDEDDLDENELLMKISNAAGARYSIQTSSKQQGKASTPPVKKSFTPSKSPAPVSKKEPVKTPSPAPAAKISSRVNDNNDDDDWNEPELKERDFDQAPLKPNQSSYKPIGKIDLQKVIAEEKAKEDPRLVQKPTAAGSKIDPSSDIANLKNESKLKRDSEFNSFLGTTKPPSMTESSLKNDDDKVIKGFRNEKSPAQLWAERKAKQNSGNAETKAEAPKPEVPEDEPEGEPDVKDLKSKFEGLAASEKEEEEMENKFAPPPKKSEPTIISPKPFSKPQEPVKAEEAEQPKTDYKKIGNPLPGMHIEADNEEEPEENDDDWDDDEDEAAQPPLPSRNVASGAPVQKEEPEQEEIAPSLPSRNSIPAPKQEEAPEQAPEEEIEEEAEEAAPQLPSRSSAAPPPPPRRATPEKKPKENPWATAEYDYDAAEDNELTFVENDKIINIEFVDDDWWLGELEKDGSKGLFPSNYVSLGN
size (colony size) (Abp1 SH3 swaps (FigS2D), SC pH6, Plate 1, Time 74, Rep 1, one colony): 2065
relative_to_wt, D_minus_WT: 0.05618
relative_to_wt, KO_minus_WT: -0.004019
Growth (Fig. S2D) (Bathophenanthroline.0.1uM): 10.7819
Growth (Fig. S2D) (Bathophenanthroline.10uM): 10.707
Growth (Fig. S2D) (Bathophenanthroline.1uM): 10.7137
Growth (Fig. S2D) (CaCl2.100mM): 10.7891
Growth (Fig. S2D) (CaCl2.250mM): 10.7489
Growth (Fig. S2D) (CaCl2.500mM): 10.224
Growth (Fig. S2D) (Caffein.10mM): 10.0464
Growth (Fig. S2D) (CdCl2.10uM): 10.9024
Growth (Fig. S2D) (CdCl2.50uM): 10.1243
Growth (Fig. S2D) (CuSO4.1mM): 10.685
Growth (Fig. S2D) (CuSO4.5mM): 8.504
Growth (Fig. S2D) (Cycloheximide.0.05.uM): 11.0798
Growth (Fig. S2D) (Cycloheximide.0.2.uM): 10.7165
Growth (Fig. S2D) (Cycloheximide.0.5.uM): 10.6015
Growth (Fig. S2D) (DMSO.2.): 11.0276
Growth (Fig. S2D) (DMSO.6.): 10.032
Growth (Fig. S2D) (DMSO.8.): 9.2108
Growth (Fig. S2D) (Ethanol.2.): 10.8119
Growth (Fig. S2D) (Ethanol.6.): 10.4593
Growth (Fig. S2D) (Ethanol.8.): 10.4305
Growth (Fig. S2D) (Galactose.2.): 10.8275
Growth (Fig. S2D) (Glycerol.2.): 10.3524
Growth (Fig. S2D) (Hydroxyurea.25mM): 10.8959
Growth (Fig. S2D) (Hygromycin.190uM): 10.9986
Growth (Fig. S2D) (Hygromycin.19uM): 10.9797
Growth (Fig. S2D) (Hygromycin.95uM): 11.0235
Growth (Fig. S2D) (MMS.0.004.): 10.9969
Growth (Fig. S2D) (MMS.0.02.): 10.8642
Growth (Fig. S2D) (MMS.0.04.): 10.3851
Growth (Fig. S2D) (Menadione.100uM): 10.5759
Growth (Fig. S2D) (Menadione.200uM): 10.5046
Growth (Fig. S2D) (Menadione.50uM): 10.8116
Growth (Fig. S2D) (NaCl.0.25M): 10.7355
Growth (Fig. S2D) (NaCl.1M): 10.3236
Growth (Fig. S2D) (Nitroquinoline.10uM): 10.7675
Growth (Fig. S2D) (Nitroquinoline.50uM): 10.7265
Growth (Fig. S2D) (Nystatin.0.01uM): 11.043
Growth (Fig. S2D) (Nystatin.0.1uM): 11.0609
Growth (Fig. S2D) (Raffinose.2.): 10.9185
Growth (Fig. S2D) (Rapamycin.10nM): 10.1065
Growth (Fig. S2D) (Rapamycin.50nM): 9.408
Growth (Fig. S2D) (SC.pH3): 10.3986
Growth (Fig. S2D) (SC.pH6): 11.0415
Growth (Fig. S2D) (SDS.0.01.): 10.9914
Growth (Fig. S2D) (SDS.0.02.): 10.9706
Growth (Fig. S2D) (SDS.0.05.): 10.8264
Growth (Fig. S2D) (Sorbitol.10mM): 10.9836
Growth (Fig. S2D) (Sorbitol.1mM): 10.9924
Growth (Fig. S2D) (Sorbitol.5mM): 10.9128
